Earlier results in patent US20070155650A1, “Use of cathepsin z inhibitors for the treatment of rhuematoid arthritis and other autoimmune diseases” (AVENTIS PHARMACEUTICALS INC., priority 2003, published 2007).
Where two headings read alike, the source gives them in different places. Values belong to the molecule of their own block, whether it stands above or below them.

How the values were obtained:
Cathepsin Z = Cathepsin Z (Homo sapiens, UniProt Q9UBR2); details: result in words
Cathepsin B = Cathepsin B (Homo sapiens, UniProt P07858); details: result in words

Chain of Cathepsin Z (Q9UBR2 62-303): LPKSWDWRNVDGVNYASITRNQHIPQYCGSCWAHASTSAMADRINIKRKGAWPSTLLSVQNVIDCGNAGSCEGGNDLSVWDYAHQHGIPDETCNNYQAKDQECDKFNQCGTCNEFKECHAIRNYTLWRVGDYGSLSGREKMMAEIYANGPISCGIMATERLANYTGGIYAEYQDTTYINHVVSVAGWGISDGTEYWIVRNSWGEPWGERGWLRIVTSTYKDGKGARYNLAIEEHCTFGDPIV

Cathepsin Z activity inhibited or not (Cathepsin Z): inhibited
B2: stefin B: protein inhibitor shown to inhibit Cathepsin Z activity (protein, UniProt P04080 1-98, looked up)
Cystatin-B: MMCGAPSATQPATAETQHIADQVRSQLEEKENKKFPVFKAVSFKSQVVAGTNYFIKVHVGDEDFVHLRVFQSLPHENKPLTLSNYQTNKAKHDELTYF

Cathepsin Z activity inhibited or not (Cathepsin Z): inhibited
B3: chicken cystatin: protein inhibitor shown to inhibit Cathepsin Z activity (protein, UniProt P01038 24-139, looked up)
Cystatin: SEDRSRLLGAPVPVDENDEGLQRALQFAMAEYNRASNDKYSSRVVRVISAKRQLVSGIKYILQVEIGRTTCPKSSGDLQSCEFHDEPEMAKYTTCTFVVYSIPWLNQIKLLESKCQ

Cathepsin Z activity inhibited or not (Cathepsin Z): inhibited
B4: cystatin C: protein inhibitor shown to inhibit Cathepsin Z activity (protein, UniProt P01034 27-146, looked up)
Cystatin-C: SSPGKPPRLVGGPMDASVEEEGVRRALDFAVGEYNKASNDMYHSRALQVVRARKQIVAGVNYFLDVELGRTTCTKTQPNLDNCPFHDQPHLKRKAFCSFQIYAVPWQGTMTLSKSTCQDA

Continued, molecule first:

Molecule: CCCNC(=O)[C@H]1O[C@@H]1C(=O)N[C@H](C(=O)N1CCC[C@H]1C(=O)O)[C@@H](C)CC [CA-074]
Cathepsin Z activity inhibited or not (Cathepsin Z): inhibited
Cathepsin B activity inhibited (Cathepsin B): block Cathepsin B activity
Cathepsin B activity inhibited (Cathepsin B; listed as CA-704): known synthetic inhibitors of Cathepsin B

B1: stefin A: protein inhibitor shown to inhibit Cathepsin Z activity (protein, UniProt P01040 1-98, looked up)
Cystatin-A: MIPGGLSEAKPATPEIQEIVDKVKPQLEEKTNETYGKLEAVQYKTQVVAGTNYYIKVRAGDNKYMHLKVFKSLPGQNEDLVLTGYQVDKNKDDELTGF
Cathepsin Z activity inhibited or not (Cathepsin Z): inhibited
